From article PMC10841698 (Cell, 2023)
Where two headings read alike, the source gives them in different places. Blank lines part the entries; values can stand above or below the binder they belong to.

Legend:
[1] = target: T1, human Wntless (WLS) with a C-terminal Flag tag (human, UniProt Q5T9L3 1-541); assay: cryo-EM structure
T1 sequence: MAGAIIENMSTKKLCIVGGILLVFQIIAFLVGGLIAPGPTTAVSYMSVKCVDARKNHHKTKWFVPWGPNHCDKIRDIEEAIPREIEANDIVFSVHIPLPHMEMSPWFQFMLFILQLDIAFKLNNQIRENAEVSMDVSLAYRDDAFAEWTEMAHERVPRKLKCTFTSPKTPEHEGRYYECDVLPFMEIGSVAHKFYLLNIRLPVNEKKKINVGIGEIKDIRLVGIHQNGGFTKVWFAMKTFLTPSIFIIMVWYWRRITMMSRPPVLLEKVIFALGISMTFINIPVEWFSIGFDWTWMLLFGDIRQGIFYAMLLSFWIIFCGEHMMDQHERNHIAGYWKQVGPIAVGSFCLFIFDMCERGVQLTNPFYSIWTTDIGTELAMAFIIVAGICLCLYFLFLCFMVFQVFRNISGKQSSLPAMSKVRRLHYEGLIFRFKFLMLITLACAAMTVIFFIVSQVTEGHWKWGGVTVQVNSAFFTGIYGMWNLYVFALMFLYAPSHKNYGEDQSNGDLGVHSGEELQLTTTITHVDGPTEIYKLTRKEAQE

[2] = target: T2, endogenous calreticulin (CALR) of HEK293 cells (human (endogenous in HEK293S GnTI-), UniProt P27797 18-417); assay: cryo-EM structure
T2 sequence (looked up): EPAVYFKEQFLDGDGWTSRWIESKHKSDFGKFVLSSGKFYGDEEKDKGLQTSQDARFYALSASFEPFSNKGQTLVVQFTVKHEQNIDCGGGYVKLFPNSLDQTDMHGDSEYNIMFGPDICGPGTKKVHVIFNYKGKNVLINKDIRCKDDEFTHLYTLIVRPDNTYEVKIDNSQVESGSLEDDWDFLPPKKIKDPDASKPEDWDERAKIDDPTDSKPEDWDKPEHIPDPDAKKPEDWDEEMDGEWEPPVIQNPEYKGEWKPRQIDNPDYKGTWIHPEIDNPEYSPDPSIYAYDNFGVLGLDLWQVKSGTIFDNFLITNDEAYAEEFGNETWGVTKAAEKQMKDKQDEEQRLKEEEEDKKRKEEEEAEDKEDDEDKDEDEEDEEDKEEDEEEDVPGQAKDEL

[3] = target: T3, human full-length RECK without a tag (human, UniProt O95980 23-942); assay: cryo-EM structure
T3 sequence (looked up): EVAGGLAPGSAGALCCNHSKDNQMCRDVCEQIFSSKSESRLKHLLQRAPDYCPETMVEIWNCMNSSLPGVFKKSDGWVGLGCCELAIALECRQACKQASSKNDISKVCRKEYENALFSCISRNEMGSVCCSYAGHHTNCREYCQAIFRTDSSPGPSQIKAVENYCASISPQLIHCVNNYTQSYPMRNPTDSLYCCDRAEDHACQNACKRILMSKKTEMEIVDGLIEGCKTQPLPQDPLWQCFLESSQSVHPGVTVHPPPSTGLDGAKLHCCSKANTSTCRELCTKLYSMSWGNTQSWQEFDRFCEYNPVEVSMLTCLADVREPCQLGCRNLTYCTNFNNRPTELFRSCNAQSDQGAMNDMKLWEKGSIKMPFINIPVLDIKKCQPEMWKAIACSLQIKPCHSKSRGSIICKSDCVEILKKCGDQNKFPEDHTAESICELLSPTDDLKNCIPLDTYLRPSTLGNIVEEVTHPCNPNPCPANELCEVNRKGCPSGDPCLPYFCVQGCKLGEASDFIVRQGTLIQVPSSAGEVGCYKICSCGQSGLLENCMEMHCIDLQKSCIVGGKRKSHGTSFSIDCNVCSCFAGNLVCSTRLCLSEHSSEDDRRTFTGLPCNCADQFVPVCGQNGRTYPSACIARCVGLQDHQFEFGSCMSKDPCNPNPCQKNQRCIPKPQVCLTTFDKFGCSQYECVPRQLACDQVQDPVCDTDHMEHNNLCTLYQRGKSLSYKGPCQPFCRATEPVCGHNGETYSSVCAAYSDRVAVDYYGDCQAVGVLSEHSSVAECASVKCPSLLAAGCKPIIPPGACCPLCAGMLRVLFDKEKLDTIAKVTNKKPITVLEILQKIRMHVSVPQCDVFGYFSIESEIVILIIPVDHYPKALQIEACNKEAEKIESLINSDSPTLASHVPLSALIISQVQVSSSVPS

[4] = target: T2, endogenous calreticulin (CALR) of …; assay: cryo-EM structure; remark: listed apart in the source
[5] = target: T1, human Wntless (WLS) with a C-terminal …; assay: co-IP

binding result [1]: binds
binding result [2]: binds
B1: human Wnt3a without a tag (ligand, UniProt P56704 19-352, looked up)
chain: SYPIWWSLAVGPQYSSLGSQPILCASIPGLVPKQLRFCRNYVEIMPSVAEGIKIGIQECQHQFRGRRWNCTTVHDSLAIFGPVLDKATRESAFVHAIASAGVAFAVTRSCAEGTAAICGCSSRHQGSPGKGWKWGGCSEDIEFGGMVSREFADARENRPDARSAMNRHNNEAGRQAIASHMHLKCKCHGLSGSCEVKTCWWSQPDFRAIGDFLKDKYDSASEMVVEKHRESRGWVETLRPRYTYFKVPTERDLVYYEASPNFCEPNPETGSFGTRDRTCNVSSHGIDGCDLLCCGRGHNARAERRREKCRCVFHWCCYVSCQECTRVYDVHTCK
modifications: palmitoleate moiety (PAM); N-glycan at Asn298

binding result [3]: binds
binding result [4]: binds
B2: human Wnt7a with a C-terminal GG linker and 6xHis tag (ligand, UniProt O00755 32-349, looked up)
chain: LGASIICNKIPGLAPRQRAICQSRPDAIIVIGEGSQMGLDECQFQFRNGRWNCSALGERTVFGKELKVGSREAAFTYAIIAAGVAHAITAACTQGNLSDCGCDKEKQGQYHRDEGWKWGGCSADIRYGIGFAKVFVDAREIKQNARTLMNLHNNEAGRKILEENMKLECKCHGVSGSCTTKTCWTTLPQFRELGYVLKDKYNEAVHVEPVRASRNKRPTFLKIKKPLSYRKPMDTDLVYIEKSPNYCEEDPVTGSVGTQGRACNKTAPQASGCDLMCCGRGYNTHQYARVWQCNCKFHWCCYVKCNTCSERTEMYTCK
modifications: palmitoleate moiety (PAM) on the conserved serine of hairpin 2; N-glycan at Asn295

binding result [5]: binds
B3: human Wnt7a with a C-terminal GG linker and Strep tag (ligand, UniProt O00755 32-349, looked up)
chain: B2 chain
modifications: palmitoleate moiety (PAM) on the conserved serine of hairpin 2; N-glycan at Asn295
